Assay results reported in patent publication US11814435B2, “Therapeutic antibodies and their uses” (PFIZER INC., priority 2015, dated 2023).
Positions count from the first letter of the chain named.

T1: hBCMA (human BCMA) (Homo sapiens, UniProt Q02223)
T1 sequence (Q02223 1-184): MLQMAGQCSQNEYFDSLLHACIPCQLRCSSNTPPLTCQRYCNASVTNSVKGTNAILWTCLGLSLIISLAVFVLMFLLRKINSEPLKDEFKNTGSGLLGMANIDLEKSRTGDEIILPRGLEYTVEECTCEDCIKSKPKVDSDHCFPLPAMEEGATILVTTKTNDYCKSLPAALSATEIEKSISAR

B1: L3.PY/L1.PS/H3.TAQ: anti-BCMA antibody (antibody, V domains shown)
VH: EVQLLESGGGLVQPGGSLRLSCAASGFTFGSYAMTWVRQAPGKGLEWVSAISGSGGNTFYADSVKGRFTISRDNSKNTLYLQMNSLRAEDTAVYYCTRVSPIAAQMDYWGQGTLVTVSS
VL: EIVLTQSPGTLSLSPGERATLSCRASQSVSSSYPSWYQQKPGQAPRLLIYGASSRATGIPDRFSGSGSGTDFTLTISRLEPEDFAVYYCQHYPYPPSFTFGQGTKVEIK
B2: L3.PY/L1.AH/H2.QL: anti-BCMA antibody (antibody, V domains shown)
VH: B1 VH with S63Q, V64L, T97A, A104S, Q105G
VL: B1 VL with S31A, S32H, P34L, S35A
B3: L3.PY/L1.FF/H2.LT: anti-BCMA antibody (antibody, V domains shown)
VH: B1 VH with G53L, S54T, T97A, A104S, Q105G
VL: B1 VL with S32F, Y33F, P34L, S35A
B4: L3.PY/L1.FF/H2.QR: anti-BCMA antibody (antibody, V domains shown)
VH: B1 VH with S63Q, V64R, T97A, A104S, Q105G
VL: B1 VL with S32F, Y33F, P34L, S35A
B5: L3.PY/L1.AH/H2.LT: anti-BCMA antibody (antibody, V domains shown)
VH: B1 VH with G53L, S54T, T97A, A104S, Q105G
VL: B1 VL with S31A, S32H, P34L, S35A
B6: L3.PY/L1.AH/H3.YA: anti-BCMA antibody (antibody, V domains shown)
VH: B1 VH with T97A, A103Y, Q105G
VL: B1 VL with S31A, S32H, P34L, S35A
B7: L3.PY/L1.FF/H2.YQ: anti-BCMA antibody (antibody, V domains shown)
VH: B1 VH with G53Y, S54Q, T97A, A104S, Q105G
VL: B1 VL with S32F, Y33F, P34L, S35A
B8: L3.PY/L1.FF/H2.HA: anti-BCMA antibody (antibody, V domains shown)
VH: B1 VH with G53H, S54A, T97A, A104S, Q105G
VL: B1 VL with S32F, Y33F, P34L, S35A
B9: L3.PY/L1.AH/H2.HA: anti-BCMA antibody (antibody, V domains shown)
VH: B1 VH with G53H, S54A, T97A, A104S, Q105G
VL: B1 VL with S31A, S32H, P34L, S35A
B10: L3.PY/L1.AH/H2.DY: anti-BCMA antibody (antibody, V domains shown)
VH: B1 VH with S52D, G53Y, T97A, A104S, Q105G
VL: B1 VL with S31A, S32H, P34L, S35A
B11: L3.PY/L1.FF/H3.AE: anti-BCMA antibody (antibody, V domains shown)
VH: B1 VH with T97A, Q105E
VL: B1 VL with S32F, Y33F, P34L, S35A
B12: L3.PY/L1.FF/H2.DY: anti-BCMA antibody (antibody, V domains shown)
VH: B1 VH with S52D, G53Y, T97A, A104S, Q105G
VL: B1 VL with S32F, Y33F, P34L, S35A
B13: L3.PY/L1.FF/H2.QL: anti-BCMA antibody (antibody, V domains shown)
VH: B1 VH with S63Q, V64L, T97A, A104S, Q105G
VL: B1 VL with S32F, Y33F, P34L, S35A
B14: L3.PY/L1.AH/H3.TAQ: anti-BCMA antibody (antibody, V domains shown)
VH: B1 VH
VL: B1 VL with S31A, S32H, P34L, S35A
B15: L3.PY/L1.AH/H3.AE: anti-BCMA antibody (antibody, V domains shown)
VH: B1 VH with T97A, Q105E
VL: B1 VL with S31A, S32H, P34L, S35A
B16: L3.PY/L1.AH/H2.QR: anti-BCMA antibody (antibody, V domains shown)
VH: B1 VH with S63Q, V64R, T97A, A104S, Q105G
VL: B1 VL with S31A, S32H, P34L, S35A
B17: L3.PY/L1.FF/H3.YA: anti-BCMA antibody (antibody, V domains shown)
VH: B1 VH with T97A, A103Y, Q105G
VL: B1 VL with S32F, Y33F, P34L, S35A
B18: L3.PY/L1.AH/H2.YQ: anti-BCMA antibody (antibody, V domains shown)
VH: B1 VH with G53Y, S54Q, T97A, A104S, Q105G
VL: B1 VL with S31A, S32H, P34L, S35A
B19: L3.PY/L1.FF/H3.TAQ: anti-BCMA antibody (antibody, V domains shown)
VH: B1 VH
VL: B1 VL with S32F, Y33F, P34L, S35A

System: cyBCMA
Experiment: Kinetics and affinity of cyBCMA/human IgG interactions by SPR (Bio-Rad Proteon XPR36)
Assay type: binding, cynomolgus
Settings: 37° C.

| Molecule | ka (1/Ms) cyBCMA @ 37° C. [M⁻¹ s⁻¹] | kd (1/s) cyBCMA @37° C. [s⁻¹] |
| --- | --- | --- |
| B1 | 2.58e+06 | 0.00552 |
| B2 | 2.62e+06 | 0.00955 |
| B3 | 2.19e+06 | 0.00341 |
| B4 | 2.55e+06 | 0.00421 |
| B5 | 2.19e+06 | 0.00296 |
| B6 | 2.37e+06 | 0.00526 |
| B7 | 2.19e+06 | 0.00326 |
| B8 | 2.33e+06 | 0.00417 |
| B9 | 2.58e+06 | 0.00439 |
| B10 | 2.32e+06 | 0.00451 |
| B11 | 2.85e+06 | 0.00501 |
| B12 | 2.66e+06 | 0.005 |
| B13 | 2.36e+06 | 0.00449 |
| B14 | 2.28e+06 | 0.00302 |
| B15 | 2.25e+06 | 0.00356 |
| B16 | 2.2e+06 | 0.00491 |
| B17 | 2.46e+06 | 0.00416 |
| B18 | 1.58e+06 | 0.00431 |
| B19 | 2.32e+06 | 0.00376 |

Biological target: T1, hBCMA (human BCMA)
Experiment: Kinetics and affinity of hBCMA/human IgG interactions by SPR (Bio-Rad Proteon XPR36)
Assay type: binding
Settings: huBCMA, 37° C.
Protocol: All experiments were performed on a Bio-Rad Proteon XPR36 surface Plasmon resonance biosensor (Bio-Rad, Hercules, Calif.). An array of anti-BCMA antibodies was prepared using an amine-coupling method on a Bio-Rad GLC Sensor Chip similar to that described in Abdiche, et al., Anal. Biochem. 411, 139-151 (2011). The analysis temperature for the immobilization was 25° C. and the running buffer was HBS-T+(10 mM HEPES, 150 mM NaCl, 0.05% Tween-20, pH 7.4). Channels were activated in the analyte (horizontal) direction by injecting a mixture of 1 mM ECD and 0.25 mM NHS for 3 minutes at a flow rate of 30 μL/min. IgGs were immobilized on the activated spots by injecting them in the ligand (vertical) direction at 20 μg/mL in 10 mM Acetate pH 4.5 buffer for 1.5 minutes at […]. The activated surfaces were blocked by injecting 1M ethanolamine, pH 8.5 in the analyte direction for 3 minutes at 30 μL/min.
The analysis temperature for the hBCMA binding analysis was 37° C. or 25° C. in a running buffer of HBS-T+, supplemented with 1 mg/mL BSA. A kinetic titration method was employed for the interaction analysis as described in Abdiche, et al. The hBCMA (human BCMA) analyte was injected in the analyte direction using a series of injections from low to high concentration. The concentrations used were 0.08 nM, 0.4 nM, 2 nM, 10 nM and 50 nM (a 5-membered series, with a 5-fold dilution factor and top concentration of 50 nM). The association time for a given analyte dilution was two minutes. Immediately after the 50 nM hBCMA injection, dissociation was monitored for 2 hours. Prior to the hBCMA analyte injections, buffer was injected 5 times using the same association and dissociation times at the hBCMA analyte cycles to prepare a buffer blank sensorgram for double-referencing purposes (double referencing as described in Myszka, J. Mol. Recognit. 12, 279-284 (1999).
The sensorgrams were double-referenced and fit to a 1:1 Langmuir with mass transport kinetic titration model in BIAevaluation Software version 4.1.1 (GE Lifesciences, Piscataway, N.J.). The sensorgrams and fits are shown in FIG. 1, and the kinetics and affinity parameters for various anti-BCMA antibodies of the present invention are shown in Tables 6A-6C.

| Molecule | ka (1/Ms) huBCMA @ 37° C. [M⁻¹ s⁻¹] | kd (1/s) huBCMA @37° C. [s⁻¹] |
| --- | --- | --- |
| B1 | 3.25e+06 | 0.00246 |
| B2 | 3.04e+06 | 0.0016 |
| B3 | 3.3e+06 | 0.00167 |
| B4 | 3.47e+06 | 0.00177 |
| B5 | 3.16e+06 | 0.00123 |
| B6 | 3e+06 | 0.0015 |
| B7 | 3.32e+06 | 0.00152 |
| B8 | 3.49e+06 | 0.00219 |
| B9 | 3.33e+06 | 0.00181 |
| B10 | 3.05e+06 | 0.00152 |
| B11 | 3.82e+06 | 0.00263 |
| B12 | 4.14e+06 | 0.00271 |
| B13 | 3.48e+06 | 0.0014 |
| B14 | 3.27e+06 | 0.00119 |
| B15 | 3.32e+06 | 0.00173 |
| B16 | 3.13e+06 | 0.00181 |
| B17 | 3.5e+06 | 0.0018 |
| B18 | 2.42e+06 | 0.00193 |
| B19 | 3.52e+06 | 0.00189 |
